Experiments:
[1] = target: T1, RSV F glycoprotein (NUF4) (respiratory syncytial virus (strain not …)); test: BIAcore, monoclonal antibody vs NUF4 (1:1)
Bac-F = test: BIAcore, monoclonal antibody vs Bac-F (1:1)
[2] = target: T1, RSV F glycoprotein (NUF4); test: BIAcore, monoclonal antibody vs NUF4 (2:1)
[3] = target: T1, RSV F glycoprotein (NUF4); test: ITC, NUF4 titrated into antibody

B1: A4B4 (monoclonal antibody) (antibody, V domains shown)
VH: QVTLRESGPALVKPTQTLTLTCTFSGFSLSTAGMSVGWIRQPPGKALEWLADIWWDDKKHYNPSLKDRLTISKDTSKNQVVLKVTNMDPADTATYYCARDMIFNFYFDVWGQGTTVTVSS
VL: DIQMTQSPSTLSASVGDRVTITCSASSRVGYMHWYQQKPGKAPKLLIYDTFFLDSGVPSRFSGSGSGTEFTLTISSLQPDDFATYYCFQGSGYPFTFGGGTKLEIK
In the case of B1, the “number in parentheses after KD (ratio to SYNAGIS, which has 1)” value (shortened to “number … (ratio to SYNAGIS, which has 1)”) [1] is reported as 15 fold, the “number … (ratio to SYNAGIS, which has 1)” value (Bac-F) is reported as 195 fold and the “number … (ratio to SYNAGIS, which has 1)” value [2] is reported as 156 fold. The ΔHb [3] was 22.2 kcal/mol.
